Positions of bridges follow the written chain, without caps; N, C: chain ends. Non-standard residues stand in square brackets, D forms with d. Dab = NCC[C@H](N)C(=O)O
What was measured:
[1] = target: human melanocortin receptor-4 (human), P32245; experiment: competition with [I125]-NDP-α-MSH, hMC4r HEK-293 membranes; conditions: remark: other sources report otherwise
[2] = target: human melanocortin receptor-4 (human) (UniProt P32245); experiment: as above
[3] = target: human melanocortin receptor-4 (human) (UniProt P32245); experiment: cell-based or functional assay
[4] = target: human melanocortin receptor-4 (human) (UniProt P32245); experiment: competition with Eu-NDP-α-MSH, hMC4r HEK-293 membranes

human melanocortin receptor-4 (human), sequence (P32245 whole entry): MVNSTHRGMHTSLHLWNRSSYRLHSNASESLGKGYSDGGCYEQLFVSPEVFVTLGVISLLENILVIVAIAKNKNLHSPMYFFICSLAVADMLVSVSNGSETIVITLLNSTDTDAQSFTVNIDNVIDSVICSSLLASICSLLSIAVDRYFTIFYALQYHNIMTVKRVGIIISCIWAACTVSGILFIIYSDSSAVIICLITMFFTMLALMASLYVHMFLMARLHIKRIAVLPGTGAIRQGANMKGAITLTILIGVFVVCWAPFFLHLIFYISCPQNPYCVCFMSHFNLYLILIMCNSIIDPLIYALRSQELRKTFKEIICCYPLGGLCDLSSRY
human melanocortin receptor-4 (human), P32245, sequence (P32245 whole entry): as above

Row | Binder | Ki [1] | Ki [2] | EC50 (cAMP) [3] | intrinsic activity (cAMP, NDP-α-MSH is 100%) [3] | Ki [4]
1 | RXXFRWX (N-terminal Ac; Dab 2 (X); Dab 3 (X); D-Phe 4; hGlu 7 (X); cyclo(Dab 2-hGlu 7); C-terminal NH2) [Peptide No. 129] | – | – | 0.065 nM | 96% | 4 nM
2 | RXXFRWX (N-terminal Ac; Dab 2 (X); Dab 3 (X); D-Phe 4; hGlu 7 (X); cyclo(Dab 2-hGlu 7); C-terminal OH) [Peptide No. 136] | – | 35 nM | – | – | –
3 | RXXFRWX (N-terminal Ac; hGlu 2 (X); Dab 3 (X); D-Phe 4; Dab 7 (X); cyclo(hGlu 2-Dab 7); C-terminal NH2) [Peptide No. 127] | – | – | 0.06 nM | 98% | 2 nM

Further lines, results first:

Row | Ki [1] | Ki [2] | EC50 (cAMP) [3] | intrinsic activity (cAMP, NDP-α-MSH is 100%) [3] | Ki [4] | Binder
4 | 57 nM | – | – | – | – | Ac-RD[Dab][dF]RWK-OH (lactam 2-7) [Peptide No. 164]
5 | – | 45 nM | – | – | – | RXXFRWX (N-terminal Ac; hGlu 2 (X); Dab 3 (X); D-Phe 4; Dab 7 (X); cyclo(hGlu 2-Dab 7); C-terminal OH) [Peptide No. 144]
6 | 4 nM | – | – | – | – | Ac-RD[Dab][dF]RWK-NH2 (lactam 2-7) [Peptide No. 163]
